Molecular target: His6-RpoS (sigma S) (Salmonella enterica serovar Typhimurium 14028s) (UniProt D0ZVL4)
Experiment: EMSA
Settings: LightShift chemiluminescent EMSA kit, 20 uL: 1 ng biotin-DNA, 2 uL binding buffer, 1 ug poly(dI.dC), 1 uL 50% glycerol, 1 uL 1 M KCl (about 50 mM added)

His6-RpoS (sigma S) (Salmonella enterica serovar Typhimurium 14028s), sequence (D0ZVL4 whole entry): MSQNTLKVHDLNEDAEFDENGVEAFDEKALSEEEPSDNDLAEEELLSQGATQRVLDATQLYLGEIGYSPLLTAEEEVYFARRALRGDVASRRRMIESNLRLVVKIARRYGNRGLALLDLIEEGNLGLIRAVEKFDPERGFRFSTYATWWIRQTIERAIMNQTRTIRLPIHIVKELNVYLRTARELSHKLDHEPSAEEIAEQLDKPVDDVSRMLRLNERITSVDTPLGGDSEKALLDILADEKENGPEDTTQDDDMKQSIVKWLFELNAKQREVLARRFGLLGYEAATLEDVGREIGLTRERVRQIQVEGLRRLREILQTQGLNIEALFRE

Row | Sequence | binding
1 | ACTCGTATGTTTATCATGCAACCTATAAATAAATGTTATATTCAATAACTAATATTACATCTCAAATTCTCTCAAGTATGTCATAACGCTGCAGCAAATAAAAGTCAGTCAGC (double strand) [waaZ promoter] | binds
2 | ACTTCCCCGAGCTTAAAAATGACCCAAACGGGTGTACCGATCTTAGTCTGCTGGCTGGCGCTGTAGCAAAGTTTAATGTCATCGGTAACCGGCTGGATTTAGCGATCCCTCAAATCGCG (double strand) [sthC promoter] | binds
